Consider 1 molecule from patent CN113817063A (XIAMEN INNOBIOMAX BIOTECHNOLOGY CO LTD, dated 2021).

Experiment [1] concerns the target T1, 人异常凝血酶原 (Des-γ-carboxyprothrombin) (human, UniProt P00734 44-622, 第6，7，14，16，19，20，25，26，29和32位的Glu残基一个或多个羧化不全 (not fully gamma-carboxylated)).
T1 construct: also called DCP; PIVKA-II
The experiment is described as follows: sandwich ELISA, 11H8-3 capture, 10D9-1-HRP detection, DCP in controls and sera. Background: In an ELISA, binding on a coated surface is turned into a signal by an enzyme label.

The target of experiment [2] is T2, DP46 (DCP 36-43 8肽) (human).
T2 peptide: ATDVFWAK
The experiment is described as follows: 8-mer peptide competition ELISA on coated 抗原1.

The target in experiment [3] is T3, DP41 (DCP 31-38 8肽) (human).
T3 peptide: LESSTATD
The experiment is described as follows: 8-mer peptide competition ELISA on coated 抗原1.

Experiment [4] concerns the target T4, DP45 (DCP 35-42 8肽) (human).
T4 peptide: TATDVFWA
Nature of the experiment: 8-mer peptide competition ELISA on coated 抗原1.

The target of experiment [5] is T5, DP48 (DCP 38-45 8肽) (human).
T5 peptide: DVFWAKYT
The experiment is described as follows: 8-mer peptide competition ELISA on coated 抗原1.

In experiment [6] the target is T6, DP42 (DCP 32-39 8肽) (human).
T6 peptide: ESSTATDV
The experiment is described as follows: 8-mer peptide competition ELISA on coated 抗原1.

For experiment [7], the target named is T7, DP47 (DCP 37-44 8肽) (human).
T7 peptide: TDVFWAKY
Nature of the experiment: 8-mer peptide competition ELISA on coated 抗原1.

Another experiment addresses T8, DP5 (DCP 41-55 15肽) (human).
T8 peptide: WAKYTACETARTPRD
The experiment is described as follows: peptide competition ELISA on coated 抗原1.

In a further experiment the target is T9, DP2 (DCP 11-25 15肽) (human).
T9 peptide: GNLERECVEETCSYE
Nature of the experiment: peptide competition ELISA on coated 抗原1.

Another experiment addresses T10, DP3 (DCP 21-35 15肽) (human).
T10 peptide: TCSYEEAFEALESST
The experiment is described as follows: peptide competition ELISA on coated 抗原1.

The target of another experiment is T11, DP1 (DCP 1-15 15肽) (human).
T11 peptide: ANTFLEEVRKGNLER
The experiment is described as follows: peptide competition ELISA on coated 抗原1.

Experiment [8] concerns the target T2, DP46 (DCP 36-43 8肽). Nature of the experiment: competition ELISA: 100ng/ml antibody pre-incubated with 50ug/ml 8-mer peptide, read on coated 抗原1.
Experiment [9] addresses T3, DP41 (DCP 31-38 8肽). The description is as above.
Experiment [10] addresses T4, DP45 (DCP 35-42 8肽). The experiment is described as above.
Experiment [11] deals with T5, DP48 (DCP 38-45 8肽). The description is as above.
For experiment [12], the target named is T6, DP42 (DCP 32-39 8肽). The experiment is described as above.
The target of experiment [13] is T7, DP47 (DCP 37-44 8肽). The experiment is described as above.
A further experiment deals with T12, DP43 (DCP 33-40 8肽) (human).
T12 peptide: SSTATDVF
Described as above.

The next experiment deals with T13, DP44 (DCP 34-41 8肽) (human).
T13 peptide: STATDVFW
The experiment is described as above.

B1: 抗人DCP单克隆抗体10D9-1 (antibody, IgG1, V domains shown)
VH: EVQLQQSGPELVKPGASVKMSCKASGYTFTSYVMHWVKQKPGQGLEWIGYIFPYNDVTEYNEKFKGKATLTSDKSSSTAYMELSSLTSEDSAVYYCARWGGRNYWGQGTSVTV
VL: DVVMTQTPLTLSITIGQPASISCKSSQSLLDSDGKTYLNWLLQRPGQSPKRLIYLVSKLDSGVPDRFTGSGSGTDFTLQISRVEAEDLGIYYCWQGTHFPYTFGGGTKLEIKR
notes: also called 抗人异常凝血酶原单克隆抗体; 10D9-1-HRP
With B1, the binding result is on record as “binds” in experiment [1]; “no binding (tested: 50ug/ml多肽)” in the experiment with DP46 (DCP 36-43 8肽) [2]; “no binding (tested: 50ug/ml多肽)” in the experiment with DP41 (DCP 31-38 8肽) [3]; “no binding (tested: 50ug/ml多肽)” in the experiment with DP45 (DCP 35-42 8肽) [4]; “no binding (tested: 50ug/ml多肽)” with DP48 (DCP 38-45 8肽) [5]; “no binding (tested: 50ug/ml多肽)” with DP42 (DCP 32-39 8肽) [6]. For the same molecule, the binding result in the experiment with DP47 (DCP 37-44 8肽) [7] was “no binding (tested: 50ug/ml多肽)”; in the experiment with DP5 (DCP 41-55 15肽), “no binding (tested: 判定标准为:大于90%以上显示有良好的竞争效果; 50ug/ml多肽)”; in the experiment with DP2 (DCP 11-25 15肽), “no binding (tested: 判定标准为:大于90%以上显示有良好的竞争效果; 50ug/ml多肽)”; in the experiment with DP3 (DCP 21-35 15肽) it was “no binding (tested: 判定标准为:大于90%以上显示有良好的竞争效果; 50ug/ml多肽)”; with DP1 (DCP 1-15 15肽), “no binding (tested: 判定标准为:大于90%以上显示有良好的竞争效果; 50ug/ml多肽)”. In addition, the “competition rate (对照样品OD值-检测样品OD值)/对照样品OD值” value is 4% in the experiment with DP46 (DCP 36-43 8肽) [8]; -2% with DP41 (DCP 31-38 8肽) [9]; -9% with DP45 (DCP 35-42 8肽) [10]; 10% in the experiment with DP48 (DCP 38-45 8肽) [11]; 10% in the experiment with DP42 (DCP 32-39 8肽) [12]; 11% in the experiment with DP47 (DCP 37-44 8肽) [13]. In addition, the entries for the “competition rate (对照样品OD值-检测样品OD值)/对照样品OD值” value with DP43 (DCP 33-40 8肽) and with DP44 (DCP 34-41 8肽) were 33% and 29%, respectively.
